# Measurements as given in patent publication US20230265151A1, “GIP/GLP1 CO-AGONIST COMPOUNDS” (priority 2020, published 2023).
# T1: human GIP receptor (human, UniProt P48546 22-466)
# T1 construct: whole, on cells; also called hGIPR; human glucose-dependent insulinotropic polypeptide receptor
# T1 sequence (looked up): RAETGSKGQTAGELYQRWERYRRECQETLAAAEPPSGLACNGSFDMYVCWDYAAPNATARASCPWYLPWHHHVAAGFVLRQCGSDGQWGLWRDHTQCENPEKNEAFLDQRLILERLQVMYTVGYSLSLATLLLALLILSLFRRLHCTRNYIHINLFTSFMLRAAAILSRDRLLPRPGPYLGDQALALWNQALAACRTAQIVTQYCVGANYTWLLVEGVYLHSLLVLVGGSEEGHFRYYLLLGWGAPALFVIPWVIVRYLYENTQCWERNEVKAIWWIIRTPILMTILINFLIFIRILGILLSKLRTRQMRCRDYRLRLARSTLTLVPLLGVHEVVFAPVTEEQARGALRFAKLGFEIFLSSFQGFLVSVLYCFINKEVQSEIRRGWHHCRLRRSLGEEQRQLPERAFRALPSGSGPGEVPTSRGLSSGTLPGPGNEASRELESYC
# T2: human GIP receptor (human, UniProt P48546 22-466)
# T2 sequence (looked up): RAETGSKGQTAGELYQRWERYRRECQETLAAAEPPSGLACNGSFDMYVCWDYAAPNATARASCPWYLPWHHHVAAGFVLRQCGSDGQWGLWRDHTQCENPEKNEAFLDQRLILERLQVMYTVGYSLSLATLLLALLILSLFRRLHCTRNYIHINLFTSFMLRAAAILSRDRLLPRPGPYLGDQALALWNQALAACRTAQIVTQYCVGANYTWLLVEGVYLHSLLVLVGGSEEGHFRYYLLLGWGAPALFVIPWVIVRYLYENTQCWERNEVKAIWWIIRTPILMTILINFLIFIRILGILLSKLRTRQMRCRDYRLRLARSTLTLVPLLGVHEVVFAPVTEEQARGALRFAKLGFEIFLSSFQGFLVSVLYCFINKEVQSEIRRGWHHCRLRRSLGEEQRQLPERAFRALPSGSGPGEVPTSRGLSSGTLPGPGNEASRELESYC
# How the values were obtained:
# [1] = target: T1, human GIP receptor; experiment: SPA competition vs [125I]-GIP, hGIPR membranes
# Experimental: The binding buffer contains 25 mM HEPES, pH 7.4, 2.5 mM CaCl₂, 1 mM MgCl₂, 0.1% (w/v) bacitracin, 0.003% (w/v) TWEEN®-20, and Roche Complete™ Protease Inhibitors without EDTA. […] Plates are sealed and mixed on a plate shaker (setting 6) for 1 minute and read with a PerkinElmer Trilux MicroBeta® scintillation counter after 2.5 to 12 hours of incubation/settling time at room temperature.
# (§1) Data are analyzed using four-parameter (curve maximum, curve minimum, IC₅₀, Hill slope) nonlinear regression routines (Genedata Screener, version 12.0.4, Genedata AG, Basal, Switzerland). […] Values for Kᵢ are reported as the geometric mean, with error expressed as the standard error of the mean (SEM) and n is equal to the number of independent replicates (determined in assays performed on different days). Geometric Means are calculated as follows: […]
# [2] = target: T3, human GLP-1 receptor (human, UniProt P43220 24-463); experiment: SPA competition vs [125I]-GLP-1, hGLP-1R membranes
# T3 construct: whole, on cells; also called hGLP-1R; human glucagon-like peptide-1 receptor
# Experimental: The binding buffer contains 25 mM HEPES, pH 7.4, 2.5 mM CaCl₂, 1 mM MgCl₂, 0.1% (w/v) bacitracin, 0.003% (w/v) TWEEN®-20, and Roche Complete™ Protease Inhibitors without EDTA.
# as §1
# [3] = target: human GLP-1 receptor (human, UniProt P43220 24-463); experiment: cell-based or functional assay
# [4] = target: human glucagon receptor (human, UniProt P47871 26-477); experiment: cell-based or functional assay
# [5] = target: T2, human GIP receptor; experiment: cell-based or functional assay
Binder,Ki [1],Ki [2],"EC50, cAMP [3]","EC50, cAMP [4]","EC50, cAMP [5]",further results
"YXEGTXTSDXSIXLDXKAQXEFIXXLIEGGKSSGAPPPS (Aib2, αMeF6, 4Pal10, αMeL13, Orn16, K17(Z1), Aib20, D-Glu24, αMeY25, K31(Z1), C-term NH2; Z1=AEEA2-(γ-Glu)-CO-(CH2)12-CO2H)",0.0595 nM,3.08 nM,–,–,–,–
"YXEGTXTSDXSIXLDXKAQXEXIXXLIEGGKSSGAPPPS (Aib2, αMeF(2F)6, 4Pal10, αMeL13, Orn16, Aib20, Bzt22, D-Glu24, αMeY25, K17 and K31: K(AEEA2-(γ-Glu)-CO-(CH2)12-CO2H), C-terminal NH2) [Example 147]",–,–,0.338 nM,> 9950 nM,0.0229 nM,"Emax, cAMP [3]: 93.5%"
"YXEGTXTSDXSIXLDXKAQXEFIXXLIEGGKSSGAPPPS (Aib2, αMeF(2F)6, 4Pal10, αMeL13, Orn16, K17(Z1), Aib20, D-Glu24, αMeY25, K31(Z1), C-term NH2; Z1=(εK)-AEEA2-(γ-Glu)-CO-(CH2)12-CO2H)",0.171 nM,2.22 nM,–,–,–,–
"YXEGTXTSDXSIXLDXKAQXEFIXXLIEGGKSSGAPPPS (Aib2, αMeF6, 4Pal10, αMeF13, Orn16, K17(Z1), Aib20, D-Glu24, αMeY25, K31(Z1), C-term NH2; Z1=AEEA2-(γ-Glu)-CO-(CH2)12-CO2H)",0.0683 nM,6.1 nM,–,–,–,–
"YXEGTXTSDXSIXLDXKAQXEFIXXLIXGGKSSGAPPPS (Aib2, αMeF(2F)6, 4Pal10, αMeL13, Orn16, Aib20, D-Glu24, αMeY25, Orn28, K17 and K31: K(AEEA2-(γ-Glu)-CO-(CH2)12-CO2H), C-terminal NH2) [Example 151]",–,–,0.546 nM,> 9950 nM,0.0197 nM,–
"YXEGTXTSDXSIXLDXKAQXEFIXXLIEGGKSSGAPPPS (Aib2, αMeF(2F)6, 4Pal10, αMeL13, Orn16, K17(Z1), Aib20, D-Glu24, αMeY25, K31(Z1), C-term NH2; Z1=AEEA3-(γ-Glu)-CO-(CH2)12-CO2H)",0.0653 nM,2.66 nM,–,–,–,–
"YXEGTXTSDXSIXLDXKAQXEFIXXLIEGGKSSGAPPPS (Aib2, αMeF6, αMeF10, αMeL13, Orn16, K17(Z1), Aib20, D-Glu24, αMeY25, K31(Z1), C-term NH2; Z1=AEEA2-(γ-Glu)-CO-(CH2)12-CO2H)",0.0891 nM,6.9 nM,–,–,–,–
"YXEGTXTSDXSIXLDXKAQXEFIXXLIEGGKSSGAPPPS (Aib2, αMeF(2F)6, 4Pal10, αMeL13, Orn16, K17(Z1), Aib20, D-Glu24, αMeY25, K31(Z1), C-term NH2; Z1=AEEA2-(γ-Glu)-(10-(4-carboxyphenoxy)decanoyl))",0.0446 nM,–,–,–,–,–
"YXEGTXTSDXSIXLDXKAQXEFIXXLIEGGKSSGAPPPS (Aib2, αMeF(2F)6, 4Pal10, αMeL13, Orn16, Orn20, D-Glu24, αMeY25, K17 and K31: K(AEEA2-(γ-Glu)-CO-(CH2)12-CO2H), C-terminal NH2) [Example 149]",–,–,1.5 nM,> 9950 nM,0.0791 nM,–
"YXEGTXTSDXSIXLDXKAQXEFIXXLIEGKPSSGAPPPS (Aib2, αMeF(2F)6, 4Pal10, αMeL13, Orn16, Aib20, D-Glu24, αMeY25, K17 and K30: K(AEEA2-(γ-Glu)-CO-(CH2)10-CH3), C-terminal NH2) [Example 140]",–,–,0.131 nM,> 9950 nM,0.0121 nM,"Emax, cAMP [5]: 98.5%"
"YXEGTXTSDXSIXLDXKAQXEFIXXLIEGGKSSGAPPPS (Aib2, αMeF(2F)6, 2FA10, αMeL13, Orn16, Aib20, D-Glu24, αMeY25, K17 and K31: K(AEEA2-(γ-Glu)-CO-(CH2)12-CO2H), C-terminal NH2) [Example 143]",–,–,0.512 nM,> 9950 nM,0.022 nM,–
"YXEGTXTSDXSIXLDXKAQXEFIXXLIEGGKSSGAPPPS (Aib2, αMeF(2F)6, 4Pal10, αMeL13, Orn16, K17(Z1), Aib20, D-Glu24, αMeY25, K31(Z1), C-term NH2; Z1=AEEA-(γ-Glu)-AEEA-CO-(CH2)12-CO2H)",0.092 nM,2.5 nM,–,–,–,–
"YXEGTXTSDXSIXLDXKAQXEFIXXLIEGXKSSGAPPPS (Aib2, αMeF(2F)6, 4Pal10, αMeL13, Orn16, Aib20, D-Glu24, αMeY25, Orn30, K17 and K31: K(AEEA2-(γ-Glu)-CO-(CH2)12-CO2H), C-terminal NH2) [Example 152]",–,–,3.91 nM,> 9950 nM,0.0416 nM,"Emax, cAMP [5]: 97.9%"
"YXEGTXTSDXSIXLDXKAQXKFIXXLIEGGPSSGAPPPS (Aib2, αMeF(2F)6, 4Pal10, αMeL13, Orn16, K17(Z1), Aib20, K21(Z1), D-Glu24, αMeY25, C-term NH2; Z1=AEEA2-(γ-Glu)-CO-(CH2)12-CO2H)",0.0629 nM,2.11 nM,–,–,–,–
"YXEGTXTSDXSIXLDXKAQXEFIXXLIKGGPSSGAPPPS (Aib2, αMeF(2F)6, 4Pal10, αMeL13, Orn16, K17(Z1), Aib20, D-Glu24, αMeY25, K28(Z1), C-term NH2; Z1=AEEA2-(γ-Glu)-CO-(CH2)12-CO2H)",0.0649 nM,3.18 nM,–,–,–,–
"YXEGTXTSDXSIXLDXKAQXEFIXXLIKGGPSSGAPPPS (Aib2, αMeF(2F)6, 4Pal10, αMeL13, Orn16, K17(Z1), Aib20, D-Glu24, αMeY25, K28(Z1), C-term NH2; Z1=AEEA2-(γ-Glu)-CO-(CH2)10-CH3)",0.0415 nM,0.268 nM,–,–,–,–
"YXEGTXTSDXSKXLDXKAQXEFIXXLIEGGPSSGAPPPS (Aib2, αMeF(2F)6, 4Pal10, K12(Z1), αMeL13, Orn16, K17(Z1), Aib20, D-Glu24, αMeY25, C-term NH2; Z1=AEEA2-(γ-Glu)-CO-(CH2)12-CO2H)",0.0972 nM,3.01 nM,–,–,–,–
"YXEGTXTSDXSIXLDXKAQXEFIXXLIEGKPSSGAPPPS (Aib2, αMeF(2F)6, 4Pal10, αMeL13, Orn16, K17(Z1), Aib20, D-Glu24, αMeY25, K30(Z1), C-term NH2; Z1=AEEA2-(γ-Glu)-CO-(CH2)12-CO2H)",0.0769 nM,8.41 nM,–,–,–,–
